The assay deals with T1, recombinant human DLL3-Flag (Homo sapiens, UniProt Q9NYJ7).
T1 construct: Based on the apparent size of the DLL3 antigen (where the ECD is approximately 56 kD); Flag; purchased Adipogen International
T1 sequence (Q9NYJ7 27-492 limits assumed): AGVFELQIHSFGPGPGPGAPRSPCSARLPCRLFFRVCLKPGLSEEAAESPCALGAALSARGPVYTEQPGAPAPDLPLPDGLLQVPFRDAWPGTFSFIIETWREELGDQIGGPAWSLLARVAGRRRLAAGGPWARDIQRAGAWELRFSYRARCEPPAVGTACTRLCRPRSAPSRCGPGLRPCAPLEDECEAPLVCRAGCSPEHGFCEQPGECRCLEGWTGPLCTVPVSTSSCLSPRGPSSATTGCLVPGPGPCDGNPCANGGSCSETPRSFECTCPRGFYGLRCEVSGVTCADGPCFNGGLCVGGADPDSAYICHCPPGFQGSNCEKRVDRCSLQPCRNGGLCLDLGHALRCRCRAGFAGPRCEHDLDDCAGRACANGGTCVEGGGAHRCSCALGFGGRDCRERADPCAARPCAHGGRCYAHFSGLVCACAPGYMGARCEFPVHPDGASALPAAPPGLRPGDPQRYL
Kind of assay: Antibody binning by competition on ForteBio RED. In kind it is binding. From the text: As to antibody binning, a ForteBio RED was used per manufacturer's instructions to identify competing antibodies that bound to the same or different bins. Briefly, a reference antibody (Ab1) was captured onto an anti-mouse capture chip, a high concentration of non-binding antibody was then used to block the chip and a baseline was collected. Monomeric, recombinant human DLL3-Flag (Adipogen International) was then captured by the specific antibody (Ab1) and the tip was dipped into a well with either the same antibody (Ab1) as a control or into a well with a different test antibody (Ab2). […] If no further binding occurred, as determined by comparing binding levels with the control Ab1, then Ab2 was determined to be in the same bin. As known in the art this process can be expanded to screen large libraries of unique antibodies using a full row of antibodies representing unique bins in a 96-well plate. […] Based on the apparent size of the DLL3 antigen (where the ECD is approximately 56 kD) and the resolution of the binning methodology employed, it is believed that the nine identified bins represent the majority of the bins present on the DLL3 extracellular antigen.

B1: SC16.23: murine anti-DLL3 monoclonal antibody, sequences in FIGS. 3A and 3B (antibody, V domains shown)
VL: QIVLTQSPAIMSASPGEKVTLTCSASSSVSSRYLYWYQQKPGSSPKLWIYSTSNLASGVPARFSGSGSGTSYSLIISSMEAEDAASYFCHQWSNYPLTFGAGTKLELK
VH: QVTLKESGPGILQPSQTLSLTCSFSGFSLSTSNTGIGWIRQPSGTGLEWLAHIWWNDDKYYNPSLKSRLTISKETSNNQVFLKITNVDTADTASYFCVQIGRDYSNYAWYFDVWGAGTTVTVSS
As to B1, the “bin relation to other antibodies” value is listed as “found not to bin with SC16.34 or SC16.56”.
